Earlier results in paper PMC8239176.

Target: KLC1 (Homo sapiens) (UniProt Q07866)
UniProt Q07866, sequence (Q07866 whole entry): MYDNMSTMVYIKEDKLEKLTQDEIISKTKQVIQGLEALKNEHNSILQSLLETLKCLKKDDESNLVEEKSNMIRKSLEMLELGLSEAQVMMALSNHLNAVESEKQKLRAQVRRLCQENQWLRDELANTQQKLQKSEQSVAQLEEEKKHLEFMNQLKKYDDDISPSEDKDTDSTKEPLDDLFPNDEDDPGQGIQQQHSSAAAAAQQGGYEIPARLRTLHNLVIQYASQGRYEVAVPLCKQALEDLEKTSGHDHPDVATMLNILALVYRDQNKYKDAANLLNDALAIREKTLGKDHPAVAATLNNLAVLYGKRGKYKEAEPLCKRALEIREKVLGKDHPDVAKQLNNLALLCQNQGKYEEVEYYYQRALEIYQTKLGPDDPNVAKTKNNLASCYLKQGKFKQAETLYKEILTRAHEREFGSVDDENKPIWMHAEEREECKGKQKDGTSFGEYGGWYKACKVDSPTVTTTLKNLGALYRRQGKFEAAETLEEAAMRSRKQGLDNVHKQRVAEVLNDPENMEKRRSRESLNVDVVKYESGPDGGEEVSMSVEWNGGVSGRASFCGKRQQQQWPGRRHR

Kd: 3.8 µM
Substance: SFPQ (from UniProt P23246)
